Assay results published in patent publication US20220251174A1 (published 2022).

B1: 22-E7 (full-length human IgG1) (antibody, V domains shown)
VH: QVQLVESGGGVVQPGTSLRLSCAASGFTFNNYPMFWVRQAPGKGLEWLALISYDGNHKVYADSVKGRFTISRDNAKNTLYLQMHSLRAEDTALYYCASDLSGAEDSWGQGTLVTVSS
VL: QSALTQPASVSGSPGQSITISCTGTSSDVGGYNYVSWYQQHPGKAPKLLIYEVSNRPSGVSNRFSGSKSGNTASLTISGLQAEDEADYYCSSYTSSSTWVFGGGTKLTVL
B2: 23-H7 Fab (Fab, V domains shown)
VH: QVQLVQSGAEVKLPGASMKVSCKASGYTFSTYYMHWVRQAPGQGPEWMGVIDPSGGTTSYAQKFHDRIAMTRDTSTSTAYLELSSLRSEDMAVYYCARGGFADAVDYWGQGTLVTVSS
VL: NFMLTQPHSVSGSPGKTVTISCTRNSGSIAGNYVQWYQQRPGSAPTTVIYEDNQRPSGVPDRFSGSIDSSSNSASLTISGLKTEDEADYYCQSYDASHLHVIFGGGTKVTVL

Columns and labels:
SARS-CoV-2 Spike () = experiment: BLI
[1] = biological target: SARS-CoV-2 Spike RBD (tagless) (UniProt P0DTC2 319-541); experiment: BLI

Binder | Kd (SARS-CoV-2 Spike ()) [µM] | IC50 [1] [µM]
B1 | 0.248 | –
B2 | – | 0.0046
